Results from paper PMC6589724, “A geminivirus betasatellite encoded βC1 protein interacts with PsbP and subverts PsbP‐mediated antiviral defence in plants”.

Molecular target: T1, GST-βC1 (Radish leaf curl betasatellite (RaLCB), UniProt A9XCM1 1-118)
T1 sequence: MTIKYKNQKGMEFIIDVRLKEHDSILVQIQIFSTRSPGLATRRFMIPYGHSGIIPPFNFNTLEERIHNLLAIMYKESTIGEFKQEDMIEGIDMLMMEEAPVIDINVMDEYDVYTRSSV
Assay: EMSA; 20 mM Tris-HCl pH 8.0, 2 mM DTT, 5 mM MgCl2, 12% glycerol, 25 mM KCl, 2 mM ATP, 10 nM probe, 15 min, room temperature; 3.7% native PAGE
Settings: protein: recombinant; tags: N-terminal GST (pGEX-6p-2); label: 5'-32P; single strand

ACGCTACGCAGCAGCCTTAGCTAC (ssDNA) [SCR probe (1303-1326)]
binding result: binds
